Numbering of substitutions follows the chain as printed. Blank lines part the entries; values can stand above or below the binder they belong to.
Tests used:
Cyno B7H6-His [1] = target: T1, Cyno B7H6-His (cynomolgus monkey); test: SPR, binder captured on Protein A/G, B7H6 analyte
T1 construct: also called CyB7H6; cyB7-H6
T1 chain: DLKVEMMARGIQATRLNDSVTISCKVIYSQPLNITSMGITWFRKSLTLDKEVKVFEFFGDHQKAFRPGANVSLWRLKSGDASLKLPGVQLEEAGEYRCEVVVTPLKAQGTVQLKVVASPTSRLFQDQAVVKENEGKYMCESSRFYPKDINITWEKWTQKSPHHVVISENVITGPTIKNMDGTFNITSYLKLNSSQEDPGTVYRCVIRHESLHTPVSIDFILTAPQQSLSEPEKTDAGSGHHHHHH
How it was run: (§1)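 B7H6/CD3 binder captured (~700 RU) on a Protein A/G CM5 surface in HBS-EP+. Human or cyno B7H6 injected at 0–100 nM and human B7H1 at 0 nM and 1 μM, 300 s association and 1200 s dissociation. Data double-referenced against the reference flow cell and blank.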

Human B7H1 = target: T2, Human B7H1 (human, UniProt Q9NZQ7 20-239); test: SPR, binder captured on Protein A/G, HuB7H1 analyte
T2 construct: also called HuB7H1; huB7-H1
T2 sequence (Q9NZQ7 other isoform, or with tags, fused parts or gaps limits assumed): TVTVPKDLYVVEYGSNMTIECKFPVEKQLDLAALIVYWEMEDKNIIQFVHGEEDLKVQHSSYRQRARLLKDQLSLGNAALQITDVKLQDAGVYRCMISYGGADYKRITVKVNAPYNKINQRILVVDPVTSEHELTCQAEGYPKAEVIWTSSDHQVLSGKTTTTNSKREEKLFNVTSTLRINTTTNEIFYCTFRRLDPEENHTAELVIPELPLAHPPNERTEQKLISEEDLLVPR
How it was run: as §1

CD3 on human T-cells = target: T3, CD3 on human T-cells (human, UniProt P07766;P09693); test: flow cytometry on purified human T-cells, PE anti-human secondary antibody
T3 construct: endogenous, on the surface of purified T-cells; also called human T-cells expressing CD3
T3 sequence (P07766 23-207, chain 1 of 2): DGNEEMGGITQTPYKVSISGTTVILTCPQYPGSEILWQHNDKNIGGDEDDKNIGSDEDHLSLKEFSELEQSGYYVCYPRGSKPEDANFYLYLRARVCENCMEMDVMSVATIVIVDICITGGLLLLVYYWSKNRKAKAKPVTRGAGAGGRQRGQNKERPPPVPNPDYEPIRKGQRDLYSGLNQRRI
T3 sequence (P09693 23-182, chain 2 of 2): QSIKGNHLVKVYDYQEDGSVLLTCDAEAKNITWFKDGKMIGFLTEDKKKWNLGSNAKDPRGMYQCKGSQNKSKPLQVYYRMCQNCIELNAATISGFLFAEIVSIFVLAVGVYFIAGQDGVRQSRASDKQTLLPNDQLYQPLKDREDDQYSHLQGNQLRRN
Protocol: T-cells were isolated by negative selection using the Pan T Cell Isolation Kit II (Miltenyi Biotec #130-091-156). In brief, cells were resuspended in 40 μl buffer PBS/0.5% BSA (Gibco ref #041-94553 M)/2 mM EDTA (Invitrogen ref #15575-038) per 10 Mio cells and incubated with 10 μl of Biotin-Antibody cocktail per 10 Mio cells for 5 min at 4° C. Subsequently, 30 μl buffer and 20 μl anti-biotin MACS® MicroBeds/10 million cells were added and incubated for 10 min at 4° C. Subsequently the mixture was placed in a pre-rinsed 25LS column (Miltenyi Biotec #130-042-401) in the magnetic field of suitable MACS® microbeads separator (Miltenyi Biotec). Flow-through was collected and washed in assay medium.
T-cells were stained with increasing concentrations of two-step purified B7H6/CD3 binding proteins in FACS buffer (PBS/0.5% BSA/0.05% sodium azide). Bound molecules were detected with PE-conjugated anti-human secondary antibody (Sigma-Aldrich, #P8047).

Human CD3 E+G HuFc-6xHis = target: T4, Human CD3 E+G HuFc-6xHis (human); test: SPR, CD3E+G-hFc immobilized, binder analyte
T4 construct: also called HuCD3E+G-hFc; huCD3
T4 sequence (chain, as listed by the source limits assumed): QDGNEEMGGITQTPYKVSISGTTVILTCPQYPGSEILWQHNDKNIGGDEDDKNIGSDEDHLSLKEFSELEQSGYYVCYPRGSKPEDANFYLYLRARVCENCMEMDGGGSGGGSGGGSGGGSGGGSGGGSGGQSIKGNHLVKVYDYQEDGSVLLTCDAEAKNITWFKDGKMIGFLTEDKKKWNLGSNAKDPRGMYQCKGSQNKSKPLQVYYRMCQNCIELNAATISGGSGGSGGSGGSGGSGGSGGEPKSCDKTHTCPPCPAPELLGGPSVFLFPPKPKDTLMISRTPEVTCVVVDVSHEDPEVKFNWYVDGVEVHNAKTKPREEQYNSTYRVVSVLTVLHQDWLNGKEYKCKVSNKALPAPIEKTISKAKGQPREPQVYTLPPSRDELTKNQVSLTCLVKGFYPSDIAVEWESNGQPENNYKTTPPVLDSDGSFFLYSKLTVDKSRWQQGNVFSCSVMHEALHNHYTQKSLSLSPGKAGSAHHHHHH
How it was run: (§2)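 On a ProteOn XPR36, human and cyno CD3E+G-hFc were amine-coupled to a GLM chip at 0.4, 0.2 and 0.1 μg/mL in 10 mM acetate pH 4.5. B7H6/CD3 binding protein (0–100 nM) flowed in HBS-EP+ at 30 μL/min, with 300 s association and 600 s dissociation. Interspot and blank responses were subtracted.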

Cyno CD3 E+G HuFc-6xHis [2] = target: T5, Cyno CD3 E+G HuFc-6xHis (cynomolgus monkey); test: SPR, CD3E+G-hFc immobilized, binder analyte
T5 construct: also called CyCD3E+G-hFc; cyCD3
T5 sequence (chain, as listed by the source limits assumed): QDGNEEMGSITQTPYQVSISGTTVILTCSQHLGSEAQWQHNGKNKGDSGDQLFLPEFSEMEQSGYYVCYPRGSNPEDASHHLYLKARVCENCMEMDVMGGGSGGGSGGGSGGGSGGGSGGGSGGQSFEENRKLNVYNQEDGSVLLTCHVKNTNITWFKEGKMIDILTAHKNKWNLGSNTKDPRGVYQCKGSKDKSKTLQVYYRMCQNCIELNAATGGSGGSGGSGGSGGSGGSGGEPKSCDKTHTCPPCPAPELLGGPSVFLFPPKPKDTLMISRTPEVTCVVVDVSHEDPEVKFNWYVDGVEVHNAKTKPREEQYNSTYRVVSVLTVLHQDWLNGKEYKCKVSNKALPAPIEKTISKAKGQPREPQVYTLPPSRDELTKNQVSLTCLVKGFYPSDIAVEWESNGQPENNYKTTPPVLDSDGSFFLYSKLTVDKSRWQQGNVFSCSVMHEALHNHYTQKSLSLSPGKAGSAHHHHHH
How it was run: as §2

[3] = target: T6, chicken egg white lysozyme (chicken, UniProt P00698 19-147); test: SPR, 1 µM binder over immobilized lysozyme
T6 construct: unrelated positively charged protein, amine-coupled to the chip; also called Lysozyme (positive)
T6 sequence (P00698 19-147): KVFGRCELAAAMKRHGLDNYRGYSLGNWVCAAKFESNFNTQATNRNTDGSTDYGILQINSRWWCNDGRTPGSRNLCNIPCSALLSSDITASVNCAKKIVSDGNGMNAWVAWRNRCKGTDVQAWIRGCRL
How it was run: (§3)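 Non-specific binding tested with samples at 1 μM in HBS-EP at 25 °C, 5 μL/min, over lysozyme or trypsin inhibitor amine-coupled to CM5 chip (3000–5000 RU). Association 10 min, dissociation 15 min.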

[4] = target: T7, trypsin inhibitor from Glycine max soybean (Glycine max (soybean)); test: SPR, 1 µM binder over immobilized trypsin inhibitor
T7 construct: unrelated negatively charged protein, amine-coupled to the chip
T7 sequence (P01070 25-205): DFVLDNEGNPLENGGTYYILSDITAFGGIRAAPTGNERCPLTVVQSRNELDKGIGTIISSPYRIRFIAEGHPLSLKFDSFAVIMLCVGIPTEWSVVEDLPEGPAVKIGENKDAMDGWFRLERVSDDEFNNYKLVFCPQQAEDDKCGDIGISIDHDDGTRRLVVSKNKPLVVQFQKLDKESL
How it was run: as §3

Cyno B7H6-His [5] = target: T1, Cyno B7H6-His; test: ratio of SPR KDs cyno/human
Cyno CD3 E+G HuFc-6xHis [6] = target: T5, Cyno CD3 E+G HuFc-6xHis; test: ratio of SPR KDs cyno/human

B1: B7H6#14/CD3#2 (bispecific antibody, human IgG1, kappa, L234A L235A)
chain 1: DIQMTQSPSSLSASVGDRVTITCKASQNVGKYVAWYQQKPGKAPKSLIYSASNRYDGVPSRFSGSGSGTDFTLTISSLQPEDFATYFCQQYISYPLTFGAGTKLEIKRTVAAPSVFIFPPSDEQLKSGTASVVCLLNNFYPREAKVQWKVDNALQSGNSQESVTEQDSKDSTYSLSSTLTLSKADYEKHKVYACEVTHQGLSSPVTKSFNRGECGGGGSEGKSSGSGSESKSTEGKSSGSGSESKSTGGGGSQVQLVQSGAEVKKPGASVKVSCKASGYTFTNYWMNWMKQAPGQGLEWIGGIYLNGDSTDYNEKFKGKVTMTVDTSTSTVYMELSSLRSEDTAVYYCTRRGDYFGDFWGQGTLVTVSSASTKGPSVFPLAPSSKSTSGGTAALGCLVKDYFPEPVTVSWNSGALTSGVHTFPAVLQSSGLYSLSSVVTVPSSSLGTQTYICNVNHKPSNTKVDKRVEPKSCDKTHTCPPCPAPEAAGGPSVFLFPPKPKDTLMISRTPEVTCVVVDVSHEDPEVKFNWYVDGVEVHNAKTKPREEQYNSTYRVVSVLTVLHQDWLNGKEYKCKVSNKALPAPIEKTISKAKGQPREPQVYTLPPSREEMTKNQVSLWCLVKGFYPSDIAVEWESNGQPENNYKTTPPVLDSDGSFFLYSKLTVDKSRWQQGNVFSCSVMHEALHNHYTQKSLSLSPG
chain 2: not shown
notes: scFab-Fc heterodimer
- Kd (Cyno B7H6-His [1]): 1 nM
- binding result (Human B7H1): no binding (tested: 1 µM)
- binding result (CD3 on human T-cells): binds
- Kd (Human CD3 E+G HuFc-6xHis): 16.9 nM
- Kd (Cyno CD3 E+G HuFc-6xHis [2]): 17.7 nM
- Non-specific binding (RU) [3]: 11.2 RU
- Non-specific binding (RU) [4]: 12.2 RU
- cy/hu B7-H6 (Cyno B7H6-His [5]): 0.9
- cy/hu CD3 (Cyno CD3 E+G HuFc-6xHis [6]): 1

B2: B7H6#14/CD3#4 (bispecific antibody, human IgG1, kappa, L234A L235A)
chain 1: B1 chain 1
chain 2: not shown
notes: scFab-Fc heterodimer
- Kd (Cyno B7H6-His [1]): 1.1 nM
- binding result (Human B7H1): no binding (tested: 1 µM)
- binding result (CD3 on human T-cells): binds
- Kd (Human CD3 E+G HuFc-6xHis): 7.6 nM
- Kd (Cyno CD3 E+G HuFc-6xHis [2]): 8.5 nM
- Non-specific binding (RU) [3]: 8.8 RU
- Non-specific binding (RU) [4]: 22.6 RU
- cy/hu B7-H6 (Cyno B7H6-His [5]): 0.8
- cy/hu CD3 (Cyno CD3 E+G HuFc-6xHis [6]): 1.1

B3: B7H6#23/CD3#4 (bispecific antibody, human IgG1, kappa, L234A L235A)
chain 1: B1 chain 1 with G57A, N283S, N306S, D308E
chain 2: not shown
notes: scFab-Fc heterodimer
- Kd (Cyno B7H6-His [1]): 1.7 nM
- binding result (Human B7H1): no binding (tested: 1 µM)
- binding result (CD3 on human T-cells): binds
- Kd (Human CD3 E+G HuFc-6xHis): 3.8 nM
- Kd (Cyno CD3 E+G HuFc-6xHis [2]): 3.6 nM
- Non-specific binding (RU) [3]: 6.8 RU
- Non-specific binding (RU) [4]: 20.7 RU
- cy/hu B7-H6 (Cyno B7H6-His [5]): 1
- cy/hu CD3 (Cyno CD3 E+G HuFc-6xHis [6]): 0.9

B4: B7H6#23/CD3#3 (bispecific antibody, human IgG1, kappa, L234A L235A)
chain 1: B1 chain 1 with G57A, N283S, N306S, D308E
chain 2: not shown
notes: scFab-Fc heterodimer
- Kd (Cyno B7H6-His [1]): 1.9 nM
- binding result (Human B7H1): no binding (tested: 1 µM)
- binding result (CD3 on human T-cells): binds
- Kd (Human CD3 E+G HuFc-6xHis): 13.8 nM
- Kd (Cyno CD3 E+G HuFc-6xHis [2]): 11.9 nM
- Non-specific binding (RU) [3]: 18.9 RU
- Non-specific binding (RU) [4]: 38.7 RU
- cy/hu B7-H6 (Cyno B7H6-His [5]): 0.9
- cy/hu CD3 (Cyno CD3 E+G HuFc-6xHis [6]): 0.9

Other lines, results leading:

- Kd (Cyno B7H6-His [1]): 2 nM
- binding result (Human B7H1): no binding (tested: 1 µM)
- binding result (CD3 on human T-cells): binds
- Kd (Human CD3 E+G HuFc-6xHis): 3.4 nM
- Kd (Cyno CD3 E+G HuFc-6xHis [2]): 3.9 nM
- Non-specific binding (RU) [3]: 57.2 RU
- Non-specific binding (RU) [4]: 96.5 RU
- cy/hu B7-H6 (Cyno B7H6-His [5]): 1.1
- cy/hu CD3 (Cyno CD3 E+G HuFc-6xHis [6]): 1.2
B5: B7H6#23/CD3#6 (bispecific antibody, human IgG1, kappa, L234A L235A)
chain 1: B1 chain 1 with G57A, N283S, N306S, D308E
chain 2: not shown
notes: scFab-Fc heterodimer

- Kd (Cyno B7H6-His [1]): 1.9 nM
- binding result (Human B7H1): no binding (tested: 1 µM)
- binding result (CD3 on human T-cells): binds
- Kd (Human CD3 E+G HuFc-6xHis): 2.8 nM
- Kd (Cyno CD3 E+G HuFc-6xHis [2]): 3.7 nM
- Non-specific binding (RU) [3]: 15 RU
- Non-specific binding (RU) [4]: 115 RU
- cy/hu B7-H6 (Cyno B7H6-His [5]): 0.9
- cy/hu CD3 (Cyno CD3 E+G HuFc-6xHis [6]): 1.3
B6: B7H6#23/CD3#5 (bispecific antibody, human IgG1, kappa, L234A L235A)
chain 1: B1 chain 1 with G57A, N283S, N306S, D308E
chain 2: not shown
notes: scFab-Fc heterodimer
